Assay [1] addresses T1, human IL-18R1 ECD-His (human) (UniProt Q13478).
T1 sequence: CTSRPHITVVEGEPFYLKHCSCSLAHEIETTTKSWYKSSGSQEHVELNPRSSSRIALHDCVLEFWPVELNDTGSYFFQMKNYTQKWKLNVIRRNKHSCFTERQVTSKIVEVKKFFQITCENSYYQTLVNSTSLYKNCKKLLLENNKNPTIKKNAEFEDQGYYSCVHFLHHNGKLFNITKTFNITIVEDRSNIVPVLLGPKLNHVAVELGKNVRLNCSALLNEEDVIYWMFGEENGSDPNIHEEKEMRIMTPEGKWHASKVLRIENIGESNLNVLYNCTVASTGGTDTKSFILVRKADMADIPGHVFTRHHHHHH
Put plainly: phage ELISA, 4-fold dilution. Background: An ELISA detects its analyte on a solid surface through an enzyme-linked reagent.

Assay [2] has as its target T2, human IL-18RAP ECD-His (human) (UniProt O95256).
T2 sequence: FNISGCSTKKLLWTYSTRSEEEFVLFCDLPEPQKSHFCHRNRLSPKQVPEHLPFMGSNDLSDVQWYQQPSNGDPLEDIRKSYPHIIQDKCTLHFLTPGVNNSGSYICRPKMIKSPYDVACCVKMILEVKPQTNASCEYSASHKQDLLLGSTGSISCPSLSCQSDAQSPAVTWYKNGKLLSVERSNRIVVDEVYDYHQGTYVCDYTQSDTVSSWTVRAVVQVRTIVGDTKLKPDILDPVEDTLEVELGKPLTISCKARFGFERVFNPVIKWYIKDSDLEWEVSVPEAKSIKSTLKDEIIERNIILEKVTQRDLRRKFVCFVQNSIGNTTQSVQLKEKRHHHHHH
Put plainly: phage ELISA, 4-fold dilution.

The target in assay [3] is T1, human IL-18R1 ECD-His (human). Put plainly: phage ELISA, 16-fold dilution.
The target in assay [4] is T2, human IL-18RAP ECD-His (human). Put plainly: phage ELISA, 16-fold dilution.
Assay [5] has as its target human IL-18R1 and IL-18RAP on IL-18 Reporter HEK 293 Cells (human) (UniProt Q13478). Put plainly: cell-based or functional assay.
The target is the same in assay [6]. Put plainly: cell-based or functional assay. The source holds these as a separate data set.
The target of assay [7] is T1, human IL-18R1 ECD-His (human). Put plainly: sandwich ELISA, IL-18RAP ECD-hFc detection.
The target in assay [8] is T3, human IL-18R1 and IL-18RAP on IL-18 Reporter HEK 293 Cells (human, UniProt Q13478 19-541; O95256 20-599).
T3 sequence (looked up) 1: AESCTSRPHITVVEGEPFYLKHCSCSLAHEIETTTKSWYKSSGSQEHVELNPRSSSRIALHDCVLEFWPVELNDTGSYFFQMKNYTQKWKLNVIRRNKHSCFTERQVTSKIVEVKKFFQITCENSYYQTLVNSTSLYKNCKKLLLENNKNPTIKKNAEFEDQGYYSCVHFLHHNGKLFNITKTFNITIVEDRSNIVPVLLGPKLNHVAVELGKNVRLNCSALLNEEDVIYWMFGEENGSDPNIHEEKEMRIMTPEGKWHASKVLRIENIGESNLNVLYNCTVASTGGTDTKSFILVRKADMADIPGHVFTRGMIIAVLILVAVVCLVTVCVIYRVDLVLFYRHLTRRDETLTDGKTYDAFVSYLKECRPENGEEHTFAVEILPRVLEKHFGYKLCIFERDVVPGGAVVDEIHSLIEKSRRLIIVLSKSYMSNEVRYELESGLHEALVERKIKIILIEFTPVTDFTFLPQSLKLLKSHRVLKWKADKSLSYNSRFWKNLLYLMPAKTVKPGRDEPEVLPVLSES
T3 sequence (looked up) 2: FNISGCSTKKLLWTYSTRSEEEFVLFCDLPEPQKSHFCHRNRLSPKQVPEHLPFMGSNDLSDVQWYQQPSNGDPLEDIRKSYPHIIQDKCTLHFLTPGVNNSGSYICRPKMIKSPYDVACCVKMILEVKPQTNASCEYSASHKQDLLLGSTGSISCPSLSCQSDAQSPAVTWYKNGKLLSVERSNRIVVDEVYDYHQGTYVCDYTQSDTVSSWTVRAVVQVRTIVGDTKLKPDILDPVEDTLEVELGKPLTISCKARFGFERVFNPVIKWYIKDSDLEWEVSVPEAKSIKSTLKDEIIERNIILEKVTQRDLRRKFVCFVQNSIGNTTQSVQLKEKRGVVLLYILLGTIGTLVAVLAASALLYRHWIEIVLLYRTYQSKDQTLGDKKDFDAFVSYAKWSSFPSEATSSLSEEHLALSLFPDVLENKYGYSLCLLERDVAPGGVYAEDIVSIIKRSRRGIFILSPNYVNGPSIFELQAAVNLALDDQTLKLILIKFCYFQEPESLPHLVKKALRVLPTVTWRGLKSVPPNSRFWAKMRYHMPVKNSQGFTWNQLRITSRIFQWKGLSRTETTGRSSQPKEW
In words: cell-based or functional assay.

Usually EC50 stands for the concentration that produces a half-maximal response.

“And” between values parts separate entries of the source, which are not always exact repeats. Equal values may be shown once. Read-outs that look alike come from different tables or passages of the source.

For the molecule NC, the ELISA OD is 0.059 in assay [1], 0.06 in assay [2], 0.055 in assay [3] and 0.068 in assay [4].

Take “recombinant human IL-18 (from UniProt Q14116 37-193) (ligand)”: in assay [5], the EC50 is 0.121 ng/mL and the Top630nm turned out to be 2.27. In assay [6], this molecule showed a 50% effective concentration (EC50) of 0.117 ng/mL; an EC50, SEAP reporter of 0.107 ng/mL; a Top630nm of 2.44.

B1: R1-C7 (VHH)
VHH: QVQLQESGGGPVQAEGSLRLSCTASGNLYRDPCMGWFRQAPGKDREGVAAMNTGADSTFYARSVKGRFTISHDNAKNTLYLQMNSVKPEDTAMYYCAASRYCTERTWTWRYDYDYWGQGTQVTVSS
With B1, the ELISA OD in assay [1] was determined as 1; in assay [3], 0.819.

B2: Wio-02-44 (Rap-A10-GGGGS-R1-E12) (bispecific antibody)
chain: QVQLQESGGGLVQAGGSLKLSCAASGYTYGPYCMGWFRQFPGKEREGVAAVGGDGRTWYGNSVKGRFTISQDNAKKTLYLQINALKPEDTAMYYCAADFDRTVCSDDIYDYTYRGQGTQVTVSSGGGGSQVQLQESGGGSVQAGGSLRLSCVASGTTMSMNYMAWFRQAPGKEREGVASIFRSTHYADSVKGRFTIAEDSAKNTVYLQMNSLKPEDTAVYYCAAGRTKPYLTPLAESQYNYWGQGIQVTVSS
For B2, the ELISA OD in assay [7] is 1.87 and 1.94. Besides, in assay [8], the “SEAP reporter OD, supernatant 5X” value was 1.31 and the “SEAP reporter OD, supernatant 25X” value came out at 1.37.

B3: Rap-F11 (VHH)
VHH: QVQLQESGGGSVQPGGSLRLSCAASGFTYIPAYMGWFRQAPGKERERVASIKTDGSTTYADSVNGRFTIAQDTAKNTLYLQMDSLKPEDTAMYYCAAYQFGAFRVWGQGTQVTVSS
Turning to B3, the ELISA OD in assay [2] came to 2; in assay [4], 1.58.

B4: Rap-A10 (VHH)
VHH: QVQLQESGGGLVQAGGSLKLSCAASGYTYGPYCMGWFRQFPGKEREGVAAVGGDGRTWYGNSVKGRFTISQDNAKKTLYLQINALKPEDTAMYYCAADFDRTVCSDDIYDYTYRGQGTQVTVSS
As to B4, the ELISA OD in assay [2] was 1.83; in assay [4], 1.57.

B5: R1-A12 (VHH)
VHH: QVQLQESGGGPVQAGGSLRLSCSASTTAYDNACMGWFRQAPGKEREGVASIHLRDRTYYADSVKGRFTLSRDGASKTLYLQMNSLKPEDSGTYYCASSNICNGLNLQGNTYWGQGTQVTVSS
For the molecule B5, the values for the ELISA OD in assay [1] and in assay [3] were 2.71 and 2.64, respectively.

B6: Rap-C10 (VHH)
VHH: QVQLQESGGGSVQPGGSLRLSCAASGFTYIPAYMGWFRQAPGKERERVASISSTDGSTTYADSVKGRFTVSQDTAKNTLYLQMNSLKPEDTAMYYCAAYQFGAFRVWGQGTQVTVSS
For the molecule B6, the results for the ELISA OD in assay [2] and in assay [4] were 1.85 and 1.58, respectively.

B7: Wio-02-03 (R1-C7-GGGGS-Rap-F11) (bispecific antibody)
chain: QVQLQESGGGPVQAEGSLRLSCTASGNLYRDPCMGWFRQAPGKDREGVAAMNTGADSTFYARSVKGRFTISHDNAKNTLYLQMNSVKPEDTAMYYCAASRYCTERTWTWRYDYDYWGQGTQVTVSSGSQVQLQESGGGSVQPGGSLRLSCAASGFTYIPAYMGWFRQAPGKERERVASIKTDGSTTYADSVNGRFTIAQDTAKNTLYLQMDSLKPEDTAMYYCAAYQFGAFRVWGQGTQVTVSS
B7: in assay [7], the ELISA OD was 1.74 and 1.85. Further, in assay [8], the “SEAP reporter OD, supernatant 5X” value is 1.39 and the “SEAP reporter OD, supernatant 25X” value was 0.608.

B8: Wio-02-09 (R1-C10-GGGGS-Rap-F11) (bispecific antibody)
chain: QVQLQESGGGSVQAGETLRLSCTASGSTFDEYDMGWYRQAPGNKCELVSTISTIDGSTYYADSVKGRFTISQDNTKNTVYLQMNSLKPEDTGVYYCEADDRGTWDRGGCWGQGTQVTVSSGGGGSQVQLQESGGGSVQPGGSLRLSCAASGFTYIPAYMGWFRQAPGKERERVASIKTDGSTTYADSVNGRFTIAQDTAKNTLYLQMDSLKPEDTAMYYCAAYQFGAFRVWGQGTQVTVSS
For the molecule B8, the ELISA OD in assay [7] is 1.81 and 1.82. In assay [8], the “SEAP reporter OD, supernatant 5X” value is 1.91 and the “SEAP reporter OD, supernatant 25X” value amounted to 1.87.

B9: R1-E12 (VHH)
VHH: QVQLQESGGGSVQAGGSLRLSCVASGTTMSMNYMAWFRQAPGKEREGVASIFRSTHYADSVKGRFTIAEDSAKNTVYLQMNSLKPEDTAVYYCAAGRTKPYLTPLAESQYNYWGQGIQVTVSS
Turning to B9, the ELISA OD turned out to be 2.76 in assay [1] and 2.71 in assay [3].

B10: Wio-02-11 (R1-C10-GGGGS-Rap-C10) (bispecific antibody)
chain: QVQLQESGGGSVQAGETLRLSCTASGSTFDEYDMGWYRQAPGNKCELVSTISTIDGSTYYADSVKGRFTISQDNTKNTVYLQMNSLKPEDTGVYYCEADDRGTWDRGGCWGQGTQVTVSSGGGGSQVQLQESGGGSVQPGGSLRLSCAASGFTYIPAYMGWFRQAPGKERERVASISSTDGSTTYADSVKGRFTVSQDTAKNTLYLQMNSLKPEDTAMYYCAAYQFGAFRVWGQGTQVTVSS
Turning to B10, the ELISA OD in assay [7] is 2.03 and 2.15. Also, in assay [8], the “SEAP reporter OD, supernatant 5X” value was 2.85 and the “SEAP reporter OD, supernatant 25X” value stood at 2.17.

B11: R1-C10 (VHH)
VHH: QVQLQESGGGSVQAGETLRLSCTASGSTFDEYDMGWYRQAPGNKCELVSTISTIDGSTYYADSVKGRFTISQDNTKNTVYLQMNSLKPEDTGVYYCEADDRGTWDRGGCWGQGTQVTVSS
For B11, the ELISA OD in assay [1] amounted to 1.33; in assay [3], 0.977.

B12: Wio-02-05 (R1-C7-GGGGS-Rap-C10) (bispecific antibody)
chain: QVQLQESGGGPVQAEGSLRLSCTASGNLYRDPCMGWFRQAPGKDREGVAAMNTGADSTFYARSVKGRFTISHDNAKNTLYLQMNSVKPEDTAMYYCAASRYCTERTWTWRYDYDYWGQGTQVTVSSGGGGSQVQLQESGGGSVQPGGSLRLSCAASGFTYIPAYMGWFRQAPGKERERVASISSTDGSTTYADSVKGRFTVSQDTAKNTLYLQMNSLKPEDTAMYYCAAYQFGAFRVWGQGTQVTVSS
For B12, the ELISA OD in assay [7] is 1.88 and 1.9. For the same molecule, in assay [8], the “SEAP reporter OD, supernatant 5X” value was 1.97 and the “SEAP reporter OD, supernatant 25X” value was 1.86.

B13: R1-F9 (VHH)
VHH: QVQLQESGGGSVQAGETLRLSCTASGFTVHDMGWYRQAPGNECELVSTISSDGSTYYADSVKGRFTISQDNAKNTVYLQMNSLKPEDTAVYYCAADHFTGLQLAECKADFGYWGQGTQVTVSS
For B13, the ELISA OD is 2.04 in assay [1] and 1.63 in assay [3].
